Test results as given in patent US20240132577A1 (US Dept. of Health and Human Services, published 2024).
Several values for one entry are separate records, joined by “and”; a condition that tells them apart may be missing. Identical values can stand only once. Like-named read-outs stand apart in the source and are kept apart here.

Legend:
Assay in all cases: cell-based or functional assay
[1] = target: T1, SARS-CoV-2 S protein (C-terminally truncated, on pseudotyped virus) (SARS-CoV-2 (Wuhan-Hu-1), UniProt P0DTC2 14-1254)
[2] = target: T1, SARS-CoV-2 S protein (C-terminally …); remark: listed apart in the source
[3] = target: SARS-CoV-2 S protein E484K (on pseudotyped virus) (SARS-CoV-2, UniProt P0DTC2 14-1254)
[4] = target: SARS-CoV-2 S protein K417N + E484K + N501Y (on pseudotyped virus) (SARS-CoV-2, UniProt P0DTC2 14-1254)
[5] = target: SARS-CoV-2 S protein R683G (on pseudotyped virus) (SARS-CoV-2, UniProt P0DTC2 14-1254)
[6] = target: SARS-CoV-2 S protein K417N (on pseudotyped virus) (SARS-CoV-2, UniProt P0DTC2 14-1254)
[7] = target: SARS-CoV-2 S protein N501Y (on pseudotyped virus) (SARS-CoV-2, UniProt P0DTC2 14-1254)
[8] = target: T1, SARS-CoV-2 S protein (C-terminally …); remark: listed apart in the source

| Binder | IC50 (pseudovirus neutralization) [1] | IC90 (pseudovirus neutralization) [1] | IC50 (pseudovirus neutralization) [2] | IC90 (pseudovirus neutralization) [2] | IC50 (variant pseudovirus neutralization) [3] [pM] | IC50 (variant pseudovirus neutralization) [4] [pM] | IC50 (variant pseudovirus neutralization) [5] [pM] | IC50 (variant pseudovirus neutralization) [6] [pM] | IC50 (variant pseudovirus neutralization) [7] [pM] | IC50 (variant pseudovirus neutralization) [8] [pM] |
| --- | --- | --- | --- | --- | --- | --- | --- | --- | --- | --- |
| Nb6 (VHH) VHH: QVQLQESGGGLVQAGGSLRLSCAASGNIANSNSMAWWRQTPGNQHERVAIISHGVTNYADSVKGRFTVSRDNAKNTLYLQMNNLKPEDTAAYYCYADLFGNTYWGQGTQVTVSS | 141 ng/ml and 10.5 nM | 354 ng/ml and 26.3 nM | – | – | – | – | – | – | – | – |
| Nb47 (VHH) VHH: QVQLQESGGGLVQAGGSLRLSCAASGRTLSRYSMSWFRQAPGKEREFVAGIRWSGSNTYYADSMKQRFTISQDNVKNTVHLQMNSLKPEDTAVYYCAATSRSDHYLNAVAWTLPNEYDYWGQGTQVTVSS | 731 ng/ml and 54.2 nM | > 10000 ng/ml and > 500 nM | – | – | – | – | – | – | – | – |
| mNb35 (VHH) VHH: QVQLVESGGGLVQAGGSLRLSCAASGRTFSKYAMGWFRQAPGKERKFVATISWSGDSAFYADSVKGRFTISRDNARNTVYLQMNSLKPEDTAVYYCTADRGMGYGDFMDYWGQGTSVTVSS | 209 ng/ml and 15.5 nM | 692 ng/ml and 51.3 nM | – | – | – | – | – | – | – | – |
| Nb43 (VHH) VHH: QVQLQESGGGLVQAGDSLKLSCAASGRTFSDSAMGWFRQAPGEEREFVAVITWNGGTTYYADSVKGRFTISRDDAKNTVYLQMNSLKPEDTAVYYCAADTSRWDYSLTYHYTREYNYWGQGTQVTVSS | 281 ng/ml and 20.9 nM | 5330 ng/ml and 395 nM | – | – | – | – | – | – | – | – |
| Nb19-tri-IgG1 (Fc fusion) QVQLQESGGGLVQAGGSLRLSCAASGSGFSIHAMGWYRQAPGKQREFVAVVGHKTNYADSVKGRFTISRDVGKNTVELQMNSLKVEDTAVYYCYCNTIVTMTGVPDAVWGQGTQVTVSSGGGGSGGGGSGGGGSQVQLQESGGGLVQAGGSLRLSCAASGSGFSIHAMGWYRQAPGKQREFVAVVGHKTNYADSVKGRFTISRDVGKNTVELQMNSLKVEDTAVYYCYCNTIVTMTGVPDAVWGQGTQVTVSSGGGGSGGGGSGGGGSQVQLQESGGGLVQAGGSLRLSCAASGSGFSIHAMGWYRQAPGKQREFVAVVGHKTNYADSVKGRFTISRDVGKNTVELQMNSLKVEDTAVYYCYCNTIVTMTGVPDAVWGQGTQVTVSSDKTHTCPPCPAPELLGGPSVFLFPPKPKDTLMISRTPEVTCVWDVSHEDPEVKFNWYVDGVEVHNAKTKPREEQYNSTYRWSVLTVLHQDWLNGKEYKCKVSNKALPAPIEKTISKAKGQPREPQVYTLPPSREEMTKNQVSLTCLVKGFYPSDIAVEWESNGQPENNYKTTPPVLDSDGSFFLYSKLTVDKSRWQQGNVFSCSVMHEALHNHYTQKSLSLSPGKHHHHHH | – | – | 0.65 ng/ml and 9.38 nM | 3.96 ng/ml and 57.6 nM | 95 | 115 | 3 | 6 | 10 | 12 |
| Nb17-tri-IgG1 (Fc fusion) QVQLQESGGGLVQTGGSLRLSCAASGRTFGIYRMGWFRQAPGKEREFVAAITSSADTAQYRDSVKGRFAISRDNAKNTLYLQMNSLKPEDTAIYYCAARDPTTLEYGNWGQGTQVTVSSGGGGSGGGGSGGGGSQVQLQESGGGLVQTGGSLRLSCAASGRTFGIYRMGWFRQAPGKEREFVAAITSSADTAQYRDSVKGRFAISRDNAKNTLYLQMNSLKPEDTAIYYCAARDPTTLEYGNWGQGTQVTVSSGGGGSGGGGSGGGGSQVQLQESGGGLVQTGGSLRLSCAASGRTFGIYRMGWFRQAPGKEREFVAAITSSADTAQYRDSVKGRFAISRDNAKNTLYLQMNSLKPEDTAIYYCAARDPTTLEYGNWGQGTQVTVSSDKTHTCPPCPAPELLGGPSVFLFPPKPKDTLMISRTPEVTCVWDVSHEDPEVKFNWYVDGVEVHNAKTKPREEQYNSTYRWSVLTVLHQDWLNGKEYKCKVSNKALPAPIEKTISKAKGQPREPQVYTLPPSREEMTKNQVSLTCLVKGFYPSDIAVEWESNGQPENNYKTTPPVLDSDGSFFLYSKLTVDKSRWQQGNVFSCSVMHEALHNHYTQKSLSLSPGKHHHHHH | – | – | 1.24 ng/ml and 18 nM | 4.7 ng/ml and 68.2 nM | 50000 | 47400 | 4 | 8 | 10 | 15 |
| Nb7 (VHH) VHH: QVQLQESGGGLVQAGDSLRLSCLSSERTFRRYGIAWFRQAPGKEREFVAAVDRSHSQTNYADFVQGRFTISTVYAKNMVYLQMNSLKPEDTAVYYCAAASYEKGSDYTSWNTDRGYDYWGQGTQVTVSS | 43 ng/ml and 3.2 nM | 451 ng/ml and 33.4 nM | – | – | – | – | – | – | – | – |
| Nb15-tri-IgG1 (Fc fusion) QVQLQESGGGLVQAGGSLRVSCAASGLPFSDYLMGWFRQAPGKEREYVAAISQNGGHTYADSVLGRFTISRDNAKNTVYLQMNMLTPGDTAVYSCAARRPGGGRWDAAHDYNYWGQGTQVTVSSGGGGSGGGGSGGGGSQVQLQESGGGLVQAGGSLRVSCAASGLPFSDYLMGWFRQAPGKEREYVAAISQNGGHTYADSVLGRFTISRDNAKNTVYLQMNMLTPGDTAVYSCAARRPGGGRWDAAHDYNYWGQGTQVTVSSGGGGSGGGGSGGGGSQVQLQESGGGLVQAGGSLRVSCAASGLPFSDYLMGWFRQAPGKEREYVAAISQNGGHTYADSVLGRFTISRDNAKNTVYLQMNMLTPGDTAVYSCAARRPGGGRWDAAHDYNYWGQGTQVTVSSDKTHTCPPCPAPELLGGPSVFLFPPKPKDTLMISRTPEVTCVWDVSHEDPEVKFNWYVDGVEVHNAKTKPREEQYNSTYRWSVLTVLHQDWLNGKEYKCKVSNKALPAPIEKTISKAKGQPREPQVYTLPPSREEMTKNQVSLTCLVKGFYPSDIAVEWESNGQPENNYKTTPPVLDSDGSFFLYSKLTVDKSRWQQGNVFSCSVMHEALHNHYTQKSLSLSPGKHHHHHH | – | – | 10 ng/ml and 142 nM | 26.9 ng/ml and 381 nM | 41 | 30 | 13 | 27 | 21 | 73 |
| msNb12-tri-IgG2a (Fc fusion) QVKLEESGGGSVQAGGSLRLICTAPGLTHNNCGLDWYRRAPGKEREFVSSISADGTTSYADSVKGRFTISKDKVEDTVYLQMNSLKPEDTAIYSCKTAFPYFGNSCVLDYWGQGTSVTVSSGGGGSGGGGSGGGGSQVKLEESGGGSVQAGGSLRLICTAPGLTHNNCGLDWYRRAPGKEREFVSSISADGTTSYADSVKGRFTISKDKVEDTVYLQMNSLKPEDTAIYSCKTAFPYFGNSCVLDYWGQGTSVTVSSGGGGSGGGGSGGGGSQVKLEESGGGSVQAGGSLRLICTAPGLTHNNCGLDWYRRAPGKEREFVSSISADGTTSYADSVKGRFTISKDKVEDTVYLQMNSLKPEDTAIYSCKTAFPYFGNSCVLDYWGQGTSVTVSSEPKIPQPQPKPQPQPQPQPKPQPKPEPECTCPKCPAPELLGGPSVFLFPPKPKDTLMISRTPEVTCVWDVSHEDPEVKFNWYVDGVEVHNAKTKPREEQYNSTYRWSVLTVLHQDWLNGKEYKCKVSNKALPAPIEKTISKAKGQPREPQVYTLPPSREEMTKNQVSLTCLVKGFYPSDIAVEWESNGQPENNYKTTPPVLDSDGSFFLYSKLTVDKSRWQQGNVFSCSVMHEALHNHYTQKSLSLSPGKHHHHHH | – | – | 4.71 ng/ml and 64.8 nM | 74 ng/ml and 1.02 µM | 149 | 90 | 178 | 68 | 82 | 91 |
| Nb56-tri-IgG1 (Fc fusion) QVQLQESGGGLVQAGDSLRLSCVASERTFRRYGMGWFRQAPGKEREFVAAVDRSHTKTGYADFVKGRFTISTNYENMVYLQMNSLKPEDTAVYYCAAPSYEKGSDPTSWNTDRGYDYWGQGTQVTVSSGGGGSGGGGSGGGGSQVQLQESGGGLVQAGDSLRLSCVASERTFRRYGMGWFRQAPGKEREFVAAVDRSHTKTGYADFVKGRFTISTNYENMVYLQMNSLKPEDTAVYYCAAPSYEKGSDPTSWNTDRGYDYWGQGTQVTVSSGGGGSGGGGSGGGGSQVQLQESGGGLVQAGDSLRLSCVASERTFRRYGMGWFRQAPGKEREFVAAVDRSHTKTGYADFVKGRFTISTNYENMVYLQMNSLKPEDTAVYYCAAPSYEKGSDPTSWNTDRGYDYWGQGTQVTVSSDKTHTCPPCPAPELLGGPSVFLFPPKPKDTLMISRTPEVTCVWDVSHEDPEVKFNWYVDGVEVHNAKTKPREEQYNSTYRWSVLTVLHQDWLNGKEYKCKVSNKALPAPIEKTISKAKGQPREPQVYTLPPSREEMTKNQVSLTCLVKGFYPSDIAVEWESNGQPENNYKTTPPVLDSDGSFFLYSKLTVDKSRWQQGNVFSCSVMHEALHNHYTQKSLSLSPGKHHHHHH | – | – | 3.91 ng/ml and 54.5 nM | 18.6 ng/ml and 260 nM | 37 | 14 | 8 | 21 | 28 | 43 |
